Target: Recombinant human NRP-1 (neuropilin-1 co-receptor) (human) (UniProt O14786)
Test: ELISA; competitive; recombinant human NRP-1 coated on a 96-well plate (200 ng/well, overnight, 4 °C), blocked with 0.5% BSA in PBS; 50 µL compound in PBS (100, 50, 25, 12.5, 6.75 µM) plus 50 µL (400 ng/mL) human (bt)-VEGF-A165 in PBS with 4 µg/mL heparin; 2 h at room temperature; streptavidin-HRP, chemiluminescence; IC50 by nonlinear regression, mean ± SD of three experiments

Sequence of Recombinant human NRP-1 (neuropilin-1 co-receptor) (human) (O14786 22-856): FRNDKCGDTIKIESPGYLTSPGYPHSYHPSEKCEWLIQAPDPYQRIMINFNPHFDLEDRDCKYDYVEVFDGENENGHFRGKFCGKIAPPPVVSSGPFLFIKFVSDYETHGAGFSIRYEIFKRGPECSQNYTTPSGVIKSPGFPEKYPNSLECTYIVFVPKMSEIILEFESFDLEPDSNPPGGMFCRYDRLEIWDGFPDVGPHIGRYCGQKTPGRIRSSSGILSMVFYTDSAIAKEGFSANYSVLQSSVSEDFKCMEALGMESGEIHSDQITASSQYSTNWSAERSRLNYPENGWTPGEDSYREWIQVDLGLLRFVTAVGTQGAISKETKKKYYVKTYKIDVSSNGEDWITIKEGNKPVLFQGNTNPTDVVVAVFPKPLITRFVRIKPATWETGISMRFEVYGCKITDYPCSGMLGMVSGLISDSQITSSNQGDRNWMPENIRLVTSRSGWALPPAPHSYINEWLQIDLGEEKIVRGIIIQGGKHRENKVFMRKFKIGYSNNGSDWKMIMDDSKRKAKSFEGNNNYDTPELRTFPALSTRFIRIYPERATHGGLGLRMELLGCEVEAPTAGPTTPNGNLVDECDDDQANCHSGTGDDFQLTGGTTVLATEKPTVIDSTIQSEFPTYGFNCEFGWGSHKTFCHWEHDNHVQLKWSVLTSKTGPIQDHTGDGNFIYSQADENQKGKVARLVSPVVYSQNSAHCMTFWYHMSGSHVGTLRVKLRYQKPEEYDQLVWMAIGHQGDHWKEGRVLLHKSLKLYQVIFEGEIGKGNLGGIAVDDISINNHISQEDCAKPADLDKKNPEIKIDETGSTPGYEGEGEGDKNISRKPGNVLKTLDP

Row | IC50 [µM] | Substance
1 | > 100 | ^DR7A-^DLys(DOTA-Sc) (peptide)
2 | > 100 | ^DR7A-^DLys(DOTA-Ga) (peptide)
